Experiments:
[1] = tested on: Chl1 full-length (Chaetomium thermophilum); assay: fluorescence anisotropy; conditions: no plateau reached, low affinity; 50 mM HEPES pH 8.0, 50 mM NaCl, 0.5 mM TCEP, 25 C; 10 nM FAM-DNA; quadratic fit
[2] = tested on: MiniChl1V2 (Chaetomium thermophilum); assay: fluorescence anisotropy; conditions: 50 mM HEPES pH 8.0, 50 mM NaCl, 0.5 mM TCEP, 25 C; 10 nM FAM-DNA; quadratic fit

Substance: 22-mer ssDNA
- Kd [1]: > 1000 nM
- Kd [2]: 38 nM
